“Also recorded” adds a separate entry of the source.
How the values were obtained:
TrkC = TrkC (Homo sapiens, UniProt Q16288); experiment: NGF^SNAP binding to Trk expressing cells
pain signaling (TrkA) = experiment: Mechanical hypersensitivity after injection of the NGF ligand into the paw; type: in vivo, mouse; details: injected into the paw of mice
TrkB = TrkB (Homo sapiens, UniProt Q16620); experiment: NGF^SNAP binding to Trk expressing cells
[1] = biological target: T1, native TrkB receptors in DRG neurons (Mus musculus, UniProt P15209); experiment: BDNF^SNAP Qdot 655 labelling of dissociated DRG; type: binding; details: conjugated to Qdot 655; dissociated DRG from TrkBCreERT2::Rosa26RFP mice
T1 construct: whether BDNF^SNAP would recognize native TrkB receptors in DRG neurons; endogenous in cells; host or cells: dissociated dorsal root ganglion neurons from TrkBCreERT2::Rosa26RFP mice
T1 sequence (P15209 32-821): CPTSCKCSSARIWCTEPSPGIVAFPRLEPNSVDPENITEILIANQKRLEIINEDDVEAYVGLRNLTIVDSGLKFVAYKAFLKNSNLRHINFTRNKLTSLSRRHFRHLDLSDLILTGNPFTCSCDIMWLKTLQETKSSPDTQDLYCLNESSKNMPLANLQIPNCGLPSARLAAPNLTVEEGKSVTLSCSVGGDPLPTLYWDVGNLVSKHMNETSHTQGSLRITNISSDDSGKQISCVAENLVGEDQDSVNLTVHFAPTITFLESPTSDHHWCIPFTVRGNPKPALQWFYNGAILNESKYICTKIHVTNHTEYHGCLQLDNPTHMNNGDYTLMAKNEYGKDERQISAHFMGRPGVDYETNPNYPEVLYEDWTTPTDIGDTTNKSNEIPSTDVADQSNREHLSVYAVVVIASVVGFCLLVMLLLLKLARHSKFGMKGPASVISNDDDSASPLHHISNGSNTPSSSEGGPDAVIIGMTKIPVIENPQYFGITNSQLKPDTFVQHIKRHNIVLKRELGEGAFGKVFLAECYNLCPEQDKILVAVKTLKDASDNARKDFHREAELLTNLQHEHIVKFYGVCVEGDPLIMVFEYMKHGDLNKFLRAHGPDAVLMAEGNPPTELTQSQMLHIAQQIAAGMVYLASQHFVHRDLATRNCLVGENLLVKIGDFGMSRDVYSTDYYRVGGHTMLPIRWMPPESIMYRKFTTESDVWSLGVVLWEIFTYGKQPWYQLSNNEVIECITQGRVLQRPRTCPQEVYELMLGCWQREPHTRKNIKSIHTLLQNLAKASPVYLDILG
Source text: The inventors further tested whether BDNF^SNAP would recognize native TrkB receptors in DRG neurons.

TrkA/p75 = biological target: T2, TrkA/p75 (Homo sapiens, UniProt P04629); experiment: BDNF^SNAP labelling of transfected HEK293T cells; type: binding; details: labelled with SNAP-Surface647
T2 construct: expressed in transfected cells; host or cells: HEK293T
T2 sequence (P04629 33-796, species assumed): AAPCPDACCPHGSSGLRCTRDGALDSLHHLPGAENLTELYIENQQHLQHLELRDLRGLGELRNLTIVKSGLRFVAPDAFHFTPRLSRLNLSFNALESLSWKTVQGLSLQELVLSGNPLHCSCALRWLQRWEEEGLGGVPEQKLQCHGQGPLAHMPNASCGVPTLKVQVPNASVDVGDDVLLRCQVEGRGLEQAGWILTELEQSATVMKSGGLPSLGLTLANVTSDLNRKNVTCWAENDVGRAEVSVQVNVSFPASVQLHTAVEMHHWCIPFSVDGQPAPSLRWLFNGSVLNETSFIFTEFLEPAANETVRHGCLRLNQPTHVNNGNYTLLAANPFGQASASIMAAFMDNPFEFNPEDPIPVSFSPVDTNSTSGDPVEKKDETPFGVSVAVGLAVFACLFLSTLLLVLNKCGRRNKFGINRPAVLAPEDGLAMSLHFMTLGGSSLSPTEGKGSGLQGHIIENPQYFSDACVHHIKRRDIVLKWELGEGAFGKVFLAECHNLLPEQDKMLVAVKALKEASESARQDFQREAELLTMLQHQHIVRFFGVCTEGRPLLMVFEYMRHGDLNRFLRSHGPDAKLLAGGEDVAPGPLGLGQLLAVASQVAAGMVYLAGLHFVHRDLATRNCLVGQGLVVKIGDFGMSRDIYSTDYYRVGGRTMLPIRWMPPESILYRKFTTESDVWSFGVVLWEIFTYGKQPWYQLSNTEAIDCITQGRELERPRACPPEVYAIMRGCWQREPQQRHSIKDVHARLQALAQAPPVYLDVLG
Source text: (§1) In light of the clinical importance of mechanical allodynia in neuropathic pain patients, it was sought to develop a pharmacological strategy to exploit the striking selectivity of TrkB to the peripheral neurons which provoke this pain state. It was reasoned that BDNF, the ligand for TrkB, may give access to these neurons and allow for their manipulation in wildtype, non-transgenic animals. To this end the inventors produced a recombinant BDNF protein with a SNAP-tag fused to its C-terminus that would enable its chemical derivatization. BDNF^SNAP was labelled in vitro with fluorescent SNAP-Surface647 substrate and applied to HEK293T cells expressing neurotrophin receptors.

TrkC/p75 = biological target: T3, TrkC/p75 (Homo sapiens, UniProt Q16288); experiment: BDNF^SNAP labelling of transfected HEK293T cells; type: binding; details: labelled with SNAP-Surface647
T3 construct: expressed in transfected cells; host or cells: HEK293T
T3 sequence (Q16288 32-839, species assumed): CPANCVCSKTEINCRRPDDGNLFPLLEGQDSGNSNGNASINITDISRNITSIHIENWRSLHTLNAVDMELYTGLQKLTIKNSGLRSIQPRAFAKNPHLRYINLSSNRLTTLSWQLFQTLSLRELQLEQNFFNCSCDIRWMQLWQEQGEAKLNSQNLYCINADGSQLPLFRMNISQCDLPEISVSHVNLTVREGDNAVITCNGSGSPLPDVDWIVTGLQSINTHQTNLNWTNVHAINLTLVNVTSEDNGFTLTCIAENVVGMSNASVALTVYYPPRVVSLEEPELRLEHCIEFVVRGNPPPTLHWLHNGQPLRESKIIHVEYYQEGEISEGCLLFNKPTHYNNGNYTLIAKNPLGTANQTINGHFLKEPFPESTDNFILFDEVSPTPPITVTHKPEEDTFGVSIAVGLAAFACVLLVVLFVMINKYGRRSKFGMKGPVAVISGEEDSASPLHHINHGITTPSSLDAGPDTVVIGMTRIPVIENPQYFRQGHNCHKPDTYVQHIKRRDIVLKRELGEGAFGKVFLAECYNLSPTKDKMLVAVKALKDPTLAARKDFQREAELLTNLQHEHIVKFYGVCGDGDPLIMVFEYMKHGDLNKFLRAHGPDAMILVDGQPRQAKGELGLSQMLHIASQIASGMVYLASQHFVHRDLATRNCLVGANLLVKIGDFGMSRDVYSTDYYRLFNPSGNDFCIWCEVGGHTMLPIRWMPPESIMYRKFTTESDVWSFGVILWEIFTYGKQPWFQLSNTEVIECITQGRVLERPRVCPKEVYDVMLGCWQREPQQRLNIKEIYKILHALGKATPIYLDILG
Source text: as §1

TrkB/p75 = biological target: T4, TrkB/p75 (Homo sapiens, UniProt Q16620); experiment: BDNF^SNAP labelling of transfected HEK293T cells; type: binding; details: labelled with SNAP-Surface647
T4 construct: expressed in transfected cells; host or cells: HEK293T
T4 sequence (Q16620 32-822, species assumed): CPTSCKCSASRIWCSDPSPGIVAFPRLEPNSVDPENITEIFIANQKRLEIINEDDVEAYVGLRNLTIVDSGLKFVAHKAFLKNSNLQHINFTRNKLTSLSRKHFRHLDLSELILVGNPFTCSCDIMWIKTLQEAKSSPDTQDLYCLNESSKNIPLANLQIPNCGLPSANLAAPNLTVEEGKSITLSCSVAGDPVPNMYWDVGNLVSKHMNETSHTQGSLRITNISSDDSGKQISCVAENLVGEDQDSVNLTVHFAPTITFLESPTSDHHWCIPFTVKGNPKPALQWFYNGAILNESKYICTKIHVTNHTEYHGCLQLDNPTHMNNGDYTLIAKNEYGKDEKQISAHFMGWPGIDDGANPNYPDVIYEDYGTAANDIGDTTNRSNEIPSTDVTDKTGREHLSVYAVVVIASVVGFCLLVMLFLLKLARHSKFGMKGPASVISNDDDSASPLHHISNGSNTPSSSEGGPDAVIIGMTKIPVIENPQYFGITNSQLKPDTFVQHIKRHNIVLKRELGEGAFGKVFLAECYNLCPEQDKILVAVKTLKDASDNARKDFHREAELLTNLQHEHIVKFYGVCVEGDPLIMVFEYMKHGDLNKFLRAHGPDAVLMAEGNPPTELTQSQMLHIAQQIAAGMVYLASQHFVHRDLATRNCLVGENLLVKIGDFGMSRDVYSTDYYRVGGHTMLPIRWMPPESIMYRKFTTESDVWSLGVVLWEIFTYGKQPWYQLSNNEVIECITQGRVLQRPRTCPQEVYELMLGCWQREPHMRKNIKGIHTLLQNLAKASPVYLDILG
Source text: as §1

TrkC, sequence (Q16288 32-839, species assumed): as the sequence (Q16288 32-839, species assumed) above
TrkB, sequence (Q16620 32-822, species assumed): as the sequence (Q16620 32-822, species assumed) above

Which results are given for NGF^SNAP: recombinant NGF^SNAP protein?
binding to TrkC cells (TrkC): not TrkB or TrkC; mechanical hypersensitivity provoked by the ligand (pain signaling (TrkA)): strong sensitizing effect; also recorded: induces mechanical hypersensitivity; binding to TrkB cells (TrkB): not TrkB or TrkC

B1: BDNF^SNAP: recombinant BDNF protein with a SNAP-tag fused to its C-terminus (protein, UniProt P23560 19-247, looked up)
Neurotrophic factor BDNF …: APMKEANIRGQGGLAYPGVRTHGTLESVNGPKAGSRGLTSLADTFEHVIEELLDEDQKVRPNEENNKDADLYTSRVMLSSQVPLEPPLLFLLEEYKNYLDAANMSMRVRRHSDPARRGELSVCDSISEWVTAADKKTAVDMSGGTVTVLEKVPVSKGQLKQYFYETKCNPMGYTKEGCRGIDKRHWNSQCRTTQSYVRALTMDSKKRIGWRFIRIDTSCVCTLTIKRGR
modifications: C-terminal SNAP tag
notes: recombinant BDNF protein with a SNAP-tag fused to its C-terminus
Which results are given for B1?
overlap between BDNF^SNAP and TrkBCreERT2 positive cells [1]: > 95%; binding to HEK293T cells expressing TrkA/p75 (TrkA/p75): did not bind; binding to HEK293T cells expressing TrkC/p75 (TrkC/p75): did not bind; binding to HEK293T cells expressing TrkB/p75 (TrkB/p75): remarkable selectivity for its cognate receptor complex TrkB/p75

Source: patent publication US20190184015A1, “IRRADIATION TREATMENT OF NEUROLOGICAL SENSATIONS BY PHOTOABLATION” (European Molecular Biology Laboratory, priority 2016, published 2019)
